Assay results reported in patent US5508261.

Assays:
[1] = target: bovine testes FSH receptors (bovine) (UniProt P35376); assay: inhibition of 125I-hFSH binding to bovine testes FSH receptors
[2] = target: rat luteal ovarian LH receptors (rat) (UniProt P16235); assay: inhibition of 125I-hCG binding to rat luteal ovarian LH receptors

Substance: eCG (ligand)
- activity relative to hFSH (FSH RECEPTORS; ratio of concentrations for 50% inhibition) (relative to recombinant hFSH) [1]: 0.18
- activity relative to hCG (LH RECEPTORS; ratio of concentrations for 50% inhibition) (relative to recombinant hCG) [2]: 0.53
